Reference: patent US20120316071A1 (published 2012)

What was measured:
[1] = biological target: T1, rHuman EGF R/Fc Chimera, CF (R&D Systems Cat#344-ER) (human, UniProt P00533 25-645); assay: ECL Multispot (MSD), 10 nM Fab; blank of this row 204
T1 construct: Bought reagent; also called epidermal growth factor receptor; Fc part of the bought chimera not given

[2] = biological target: T2, rHuman Notch-1/Fc Chimera, CF (R&D Systems Cat#3647-TK) (human, UniProt P46531 19-526); assay: as above
T2 construct: Bought reagent; Fc part of the bought chimera not given

[3] = biological target: T3, rHuman Erythropoietin R/Fc Chimera, CF (R&D Systems Cat#963-ER) (human, UniProt P19235 25-250); assay: as above
T3 construct: Bought reagent; also called EPO R; EPO R/Fc; Fc part of the bought chimera not given
T3 sequence (looked up): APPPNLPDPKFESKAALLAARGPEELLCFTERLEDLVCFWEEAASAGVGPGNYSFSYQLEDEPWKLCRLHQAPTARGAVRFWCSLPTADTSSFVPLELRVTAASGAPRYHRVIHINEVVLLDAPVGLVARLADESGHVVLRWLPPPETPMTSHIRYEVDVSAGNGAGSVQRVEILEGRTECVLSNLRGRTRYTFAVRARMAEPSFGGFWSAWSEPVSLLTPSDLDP

[4] = biological target: T4, rHuman ErbB2/Fc Chimera, CF (R&D Systems Cat#1129-ER) (human, UniProt P04626 23-652); assay: as above
T4 construct: Bought reagent; also called human epidermal growth factor 2 receptor; Fc part of the bought chimera not given

[5] = biological target: T5, rHuman IGF-1 sR, (IGF-1 sR), CF (R&D Systems Cat#391-GR) (human, UniProt P08069 31-932); assay: as above
T5 construct: Bought soluble receptor; also called insulin-like growth factor-1 soluble receptor

[6] = biological target: T6, rHuman HGF R/c-MET/Fc Chimera, CF (R&D Systems Cat#358-MT/CF) (human, UniProt P08581 25-932); assay: as above
T6 construct: Bought reagent; also called HGF R/Fc; hepatocyte growth factor receptor; Fc part of the bought chimera not given

[7] = biological target: T7, rHuman CD44/Fc Chimera, CF (R&D Systems Cat#3660-CD) (human, UniProt P16070 21-220); assay: as above
T7 construct: Bought reagent; Fc part of the bought chimera not given

[8] = biological target: T8, rHuman P-Cadherin/Fc Chimera, CF (R&D Systems Cat#861-PC) (human, UniProt P22223 108-654); assay: as above
T8 construct: Bought reagent; Fc part of the bought chimera not given

[9] = biological target: T1, rHuman EGF R/Fc Chimera, CF (R&D …); assay: ECL Multispot (MSD), 10 nM Fab; blank of this row 363
[10] = biological target: T2, rHuman Notch-1/Fc Chimera, CF (R&D …); assay: as above
[11] = biological target: T3, rHuman Erythropoietin R/Fc Chimera, CF …; assay: as above
[12] = biological target: T4, rHuman ErbB2/Fc Chimera, CF (R&D …); assay: as above
[13] = biological target: T5, rHuman IGF-1 sR, (IGF-1 sR), CF (R&D …); assay: as above
[14] = biological target: T6, rHuman HGF R/c-MET/Fc Chimera, CF (R&D …); assay: as above
[15] = biological target: T7, rHuman CD44/Fc Chimera, CF (R&D Systems …); assay: as above
[16] = biological target: T8, rHuman P-Cadherin/Fc Chimera, CF (R&D …); assay: as above
[17] = biological target: T1, rHuman EGF R/Fc Chimera, CF (R&D …); assay: ECL Multispot (MSD), 10 nM Fab; blank of this row 203
[18] = biological target: T2, rHuman Notch-1/Fc Chimera, CF (R&D …); assay: as above
[19] = biological target: T3, rHuman Erythropoietin R/Fc Chimera, CF …; assay: as above
[20] = biological target: T4, rHuman ErbB2/Fc Chimera, CF (R&D …); assay: as above
[21] = biological target: T5, rHuman IGF-1 sR, (IGF-1 sR), CF (R&D …); assay: as above
[22] = biological target: T6, rHuman HGF R/c-MET/Fc Chimera, CF (R&D …); assay: as above
[23] = biological target: T7, rHuman CD44/Fc Chimera, CF (R&D Systems …); assay: as above
[24] = biological target: T8, rHuman P-Cadherin/Fc Chimera, CF (R&D …); assay: as above

T6 sequence (P08581 25-932, change not shown): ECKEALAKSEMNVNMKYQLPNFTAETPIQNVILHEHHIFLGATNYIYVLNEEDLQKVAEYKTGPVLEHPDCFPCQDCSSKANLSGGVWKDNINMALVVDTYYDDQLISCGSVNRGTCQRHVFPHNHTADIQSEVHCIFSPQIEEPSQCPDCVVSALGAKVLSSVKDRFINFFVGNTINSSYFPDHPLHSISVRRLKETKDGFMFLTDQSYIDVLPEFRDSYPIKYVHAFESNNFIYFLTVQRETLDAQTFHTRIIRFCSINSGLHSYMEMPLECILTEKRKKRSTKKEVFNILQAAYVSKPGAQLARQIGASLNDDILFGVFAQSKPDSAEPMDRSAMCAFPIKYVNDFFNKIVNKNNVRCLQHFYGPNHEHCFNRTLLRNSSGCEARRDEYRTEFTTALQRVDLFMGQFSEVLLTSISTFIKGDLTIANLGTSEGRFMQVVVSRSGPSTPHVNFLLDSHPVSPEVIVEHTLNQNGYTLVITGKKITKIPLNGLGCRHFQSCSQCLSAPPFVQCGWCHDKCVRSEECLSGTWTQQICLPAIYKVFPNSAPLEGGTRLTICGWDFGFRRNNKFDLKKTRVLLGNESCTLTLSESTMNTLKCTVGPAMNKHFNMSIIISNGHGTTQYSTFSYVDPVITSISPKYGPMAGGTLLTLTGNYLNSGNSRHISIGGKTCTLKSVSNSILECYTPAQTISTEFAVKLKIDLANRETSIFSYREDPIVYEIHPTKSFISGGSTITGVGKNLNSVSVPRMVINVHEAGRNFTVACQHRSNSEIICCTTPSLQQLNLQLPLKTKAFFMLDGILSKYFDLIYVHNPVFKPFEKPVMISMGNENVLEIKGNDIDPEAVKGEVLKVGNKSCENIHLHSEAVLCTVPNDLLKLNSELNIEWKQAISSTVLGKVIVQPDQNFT

B1: Fab VH1-46_IGHD6-6*01_IGHJ1*01 S102A/S103P/S104F (APF) & L6_IGKJ1*01 (Fab, V domains shown)
VH: QVQLVQSGAEVKKPGASVKVSCKASGYTFTSYYMHWVRQAPGQGLEWMGIINPSGGSTSYAQKFQGRVTMTRDTSTSTVYMELSSLRSEDTAVYYCAREEYAPFSAEYFQHWGQGTLVTVSS
VL: not shown
notes: Tested as Fab made in E. coli; also called H:APF & L:wt; APF triple mutant
Q: What does the source list for B1?
A: ECL signal [1]: 394; ECL signal [2]: 283; ECL signal [3]: 343; ECL signal [4]: 302; ECL signal [5]: 213; ECL signal [6]: 200; ECL signal [7]: 340; ECL signal [8]: 118; ECL signal [9]: 467; ECL signal [10]: 376; ECL signal [11]: 494; ECL signal [12]: 525; ECL signal [13]: 361; ECL signal [14]: 422; ECL signal [15]: 345; ECL signal [16]: 305

B2: Fab VH1-46_IGHD6-6*01_IGHJ1*01 S102A/S103P/S104F H111S & L6_IGKJ1*01 (Fab, V domains shown)
VH: QVQLVQSGAEVKKPGASVKVSCKASGYTFTSYYMHWVRQAPGQGLEWMGIINPSGGSTSYAQKFQGRVTMTRDTSTSTVYMELSSLRSEDTAVYYCAREEYAPFSAEYFQSWGQGTLVTVSS
VL: not shown
notes: Fab format as for m1; also called APF H111S
Q: How did the ECL signal [17] turn out when B2 was run?
A: 286

Q: And the ECL signal [18]?
A: 272

Q: And the ECL signal [19]?
A: 277

Q: What about the ECL signal [20] of the same binder?
A: 314

Q: And the ECL signal [21]?
A: 136

Q: And the ECL signal [22]?
A: 235

Q: What about the ECL signal [23] of the same binder?
A: 244

Q: And the ECL signal [24]?
A: 178
